Experimental data taken from the supplement of paper PMC11246515.
± gives the standard deviation of the averaged measurements.

Test: total protein half-life in vivo (active degradation + dilution); higher = more stable protein
[1] = E. coli NCM3722 delta-clpP delta-lon delta-hslV, growth: N-lim chemostat, doubling time 6 h
[2] = E. coli NCM3722 delta-clpP, growth: N-lim chemostat, doubling time 6 h
[3] = E. coli NCM3722 delta-hslV, growth: N-lim chemostat, doubling time 6 h
[4] = E. coli NCM3722 delta-lon, growth: N-lim chemostat, doubling time 6 h
[5] = E. coli NCM3722 delta-smpB, growth: N-lim chemostat, doubling time 6 h
[6] = wild type E. coli NCM3722, growth: C-lim chemostat, doubling time 3 h
[7] = wild type E. coli NCM3722, growth: C-lim chemostat, doubling time 6 h
[8] = wild type E. coli NCM3722, growth: C-lim chemostat, doubling time 12 h
[9] = wild type E. coli NCM3722, growth: N-lim chemostat, doubling time 6 h
[10] = wild type E. coli NCM3722, growth: N-lim chemostat, doubling time 12 h
[11] = wild type E. coli NCM3722, growth: P-lim chemostat, doubling time 6 h
[12] = wild type E. coli NCM3722, growth: P-lim chemostat, doubling time 12 h

Sequence | total protein half-life in vivo [1] [h] | total protein half-life in vivo [2] [h] | total protein half-life in vivo [3] [h] | total protein half-life in vivo [4] [h] | total protein half-life in vivo [5] [h] | total protein half-life in vivo [6] [h] | total protein half-life in vivo [7] [h] | total protein half-life in vivo [8] [h] | total protein half-life in vivo [9] [h] | total protein half-life in vivo [10] [h] | total protein half-life in vivo [11] [h] | total protein half-life in vivo [12] [h]
MKTLILFSTRDGQTREIASYLASELKELGIQADVANVHRIEEPQWENYDRVVIGASIRYGHYHSAFQEFVKKHATRLNSMPSAFYSVNLVARKPEKRTPQTNSYARKFLMNSQWRPDRCAVIAGALRYPRYRWYDRFMIKLIMKMSGGETDTRKEVVYTDWEQVANFAREIAHLTDKPTLK [P0ACB4] | 6.5 ± 0.98 | 6.1 ± 0.4 | 6.54 ± 0.68 | 6.2 ± 0.14 | 5.74 ± 0.11 | 3.05 ± 0.23 | 5.733 ± 0.054 | 9.62 ± 0.39 | 5.4517 ± 0.0046 | 11.18 ± 0.03 | 5.69 ± 0.12 | 11.9 ± 0.72
MKRASLLTLTLIGAFSAIQAAWAVDYPLPPTGSRLVGQNQTYTVQEGDKNLQAIARRFDTAAMLILEANNTIAPVPKPGTTITIPSQLLLPDAPRQGIIVNLAELRLYYYPPGENIVQVYPIGIGLQGLETPVMETRVGQKIPNPTWTPTAGIRQRSLERGIKLPPVVPAGPNNPLGRYALRLAHGNGEYLIHGTSAPDSVGLRVSSGCIRMNAPDIKALFSSVRTGTPVKVINEPVKYSVEPNGMRYVEVHRPLSAEEQQNVQTMPYTLPAGFTQFKDNKAVDQKLVDKALYRRAGYPVSVSSGATPAASNAPSVESAQNGEPEQGNMLRVTQ | 5.45 ± 0.37 | 5.31 ± 0.28 | 5.75 ± 0.64 | 5.59 ± 0.22 | 5.31 ± 0.5 | 3.12 ± 0.47 | 6.04 ± 1.4 | 12.4 ± 2.9 | 5.2 ± 0.094 | 9.08 ± 0.15 | 5.28 ± 0.24 | 11.2 ± 1.1
MIQSQINRNIRLDLADAILLSKAKKDLSFAEIADGTGLAEAFVTAALLGQQALPADAARLVGAKLDLDEDSILLLQMIPLRGCIDDRIPTDPTMYRFYEMLQVYGTTLKALVHEKFGDGIISAINFKLDVKKVADPEGGERAVITLDGKYLPTKPF | 5.03 ± 0.21 | – | – | 5.12 | – | – | 5.48 | 10.6 ± 0.58 | 3.64 | 11.9 | – | 11.1
MQSWYLLYCKRGQLQRAQEHLERQAVNCLAPMITLEKIVRGKRTAVSEPLFPNYLFVEFDPEVIHTTTINATRGVSHFVRFGASPAIVPSAVIHQLSVYKPKDIVDPATPYPGDKVIITEGAFEGFQAIFTEPDGEARSMLLLNLINKEIKHSVKNTEFRKL [P0AFW0] | 4.25 ± 0.76 | 3.41 ± 0.17 | 3.23 | 3.931 ± 0.015 | 2.52 ± 0.22 | 3.08 ± 0.73 | 5.24 ± 1.7 | 6.64 ± 1.1 | 3.18 | 5.43 ± 1.4 | 4.35 ± 0.79 | 7.71
MHPTGPHLGPDVLFRESNMKVTLTFNEQRRAAYRQQGLWGDASLADYWQQTARAMPDKIAVVDNHGASYTYSALDHAASCLANWMLAKGIESGDRIAFQLPGWCEFTVIYLACLKIGAVSVPLLPSWREAELVWVLNKCQAKMFFAPTLFKQTRPVDLILPLQNQLPQLQQIVGVDKLAPATSSLSLSQIIADNTSLTTAITTHGDELAAVLFTSGTEGLPKGVMLTHNNILASERAYCARLNLTWQDVFMMPAPLGHATGFLHGVTAPFLIGARSVLLDIFTPDACLALLEQQRCTCMLGATPFVYDLLNVLEKQPADLSALRFFLCGGTTIPKKVARECQQRGIKLLSVYGSTESSPHAVVNLDDPLSRFMHTDGYAAAGVEIKVVDDARKTLPPGCEGEEASRGPNVFMGYFDEPELTARALDEEGWYYSGDLCRMDEAGYIKITGRKKDIIVRGGENISSREVEDILLQHPKIHDACVVAMSDERLGERSCAYVVLKAPHHSLSLEEVVAFFSRKRVAKYKYPEHIVVIEKLPRTTSGKIQKFLLRKDIMRRLTQDVCEEIE | 7.05 | – | – | – | – | – | – | – | – | – | – | –
MKLFAQGTSLDLSHPHVMGILNVTPDSFSDGGTHNSLIDAVKHANLMINAGATIIDVGGESTRPGAAEVSVEEELQRVIPVVEAIAQRFEVWISVDTSKPEVIRESAKVGAHIINDIRSLSEPGALEAAAETGLPVCLMHMQGNPKTMQEAPKYDDVFAEVNRYFIEQIARCEQAGIAKEKLLLDPGFGFGKNLSHNYSLLARLAEFHHFNLPLLVGMSRKSMIGQLLNVGPSERLSGSLACAVIAAMQGAHIIRVHDVKETVEAMRVVEATLSAKENKRYE [P0AC13] | 4.15 ± 0.55 | 3.78 ± 0.098 | 4.96 ± 1.8 | 4.16 ± 0.19 | 3.72 ± 0.14 | 2.881 ± 0.016 | 4.48 ± 0.86 | – | 3.94 ± 0.15 | 6.23 ± 0.25 | 5.63 ± 0.14 | 11.3 ± 0.29
MSLTRLLIRDFRNIETADLALSPGFNFLVGANGSGKTSVLEAIYTLGHGRAFRSLQIGRVIRHEQEAFVLHGRLQGEERETAIGLTKDKQGDSKVRIDGTDGHKVAELAHLMPMQLITPEGFTLLNGGPKYRRAFLDWGCFHNEPGFFTAWSNLKRLLKQRNAALRQVTRYEQLRPWDKELIPLAEQISTWRAEYSAGIAADMADTCKQFLPEFSLTFSFQRGWEKETEYAEVLERNFERDRQLTYTAHGPHKADLRIRADGAPVEDTLSRGQLKLLMCALRLAQGEFLTRESGRRCLYLIDDFASELDDERRGLLASRLKATQSQVFVSAISAEHVIDMSDENSKMFTVEKGKITD [P0A7H0] | 5.54 ± 0.29 | 4.43 ± 0.14 | 3.95 ± 0.053 | 4.92 ± 0.21 | 3.93 ± 0.32 | – | 5.07 ± 0.41 | 9.88 ± 0.3 | 4.32 ± 0.1 | 8.32 ± 0.12 | 4.06 ± 1 | 7.31 ± 0.63
